From paper PMC10786891, “Massively parallel profiling of RNA-targeting CRISPR-Cas13d”
Changes are numbered by the printed parent chain. Numbers in names are those of the source.

T1: EsCas13d, nuclease-dead (Eubacterium siraeum, UniProt B0MS50, R295A;H300A;R849A;H854A)
T1 sequence: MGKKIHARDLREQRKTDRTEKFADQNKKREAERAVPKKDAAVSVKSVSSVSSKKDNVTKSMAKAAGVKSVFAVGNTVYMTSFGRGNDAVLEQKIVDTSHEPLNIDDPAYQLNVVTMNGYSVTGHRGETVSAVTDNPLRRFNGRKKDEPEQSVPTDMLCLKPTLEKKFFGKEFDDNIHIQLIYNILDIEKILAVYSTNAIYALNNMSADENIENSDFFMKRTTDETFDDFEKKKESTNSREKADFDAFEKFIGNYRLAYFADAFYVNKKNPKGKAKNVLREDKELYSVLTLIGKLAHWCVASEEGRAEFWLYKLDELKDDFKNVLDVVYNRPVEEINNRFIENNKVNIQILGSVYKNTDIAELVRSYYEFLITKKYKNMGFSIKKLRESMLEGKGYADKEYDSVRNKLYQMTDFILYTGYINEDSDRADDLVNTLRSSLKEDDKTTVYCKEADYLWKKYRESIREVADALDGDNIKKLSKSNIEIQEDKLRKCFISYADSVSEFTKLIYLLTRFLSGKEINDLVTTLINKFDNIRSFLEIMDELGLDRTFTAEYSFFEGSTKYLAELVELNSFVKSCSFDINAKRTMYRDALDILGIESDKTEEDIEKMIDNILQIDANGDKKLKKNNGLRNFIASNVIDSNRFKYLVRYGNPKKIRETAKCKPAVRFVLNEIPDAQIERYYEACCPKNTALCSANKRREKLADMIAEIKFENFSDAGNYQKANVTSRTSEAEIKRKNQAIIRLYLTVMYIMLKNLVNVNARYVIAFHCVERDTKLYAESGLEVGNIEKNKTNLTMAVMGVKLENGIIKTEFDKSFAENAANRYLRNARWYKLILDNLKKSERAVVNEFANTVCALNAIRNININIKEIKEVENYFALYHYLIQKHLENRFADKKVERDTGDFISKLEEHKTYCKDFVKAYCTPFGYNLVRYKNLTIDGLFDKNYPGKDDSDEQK

B1: target 1 insU 3' of 20,insU 3' of 5 (mixed)
RNA 1: CACCCGUGCAAAAAUGCAGGGGUCUAAAACUGAGCGGAUAACCUCUCUAUGG
RNA 2: GGGAAUGGAUCCACAUCUACGAAUUCGUACCAUUAGAGAGGUUAUCCGUCUCACCGAGAUCGGAAGAGCACACGU
B2: target 1 C2A,C6U (mixed)
RNA 1: B1 RNA 1
RNA 2: GGGAAUGGAUCCACAUCUACGAAUUCGUACCAUAGAGAGGUUAUCUGCUAACCGAGAUCGGAAGAGCACACGU
B3: target 1 insG 3' of 11,insA 3' of 8 (mixed)
RNA 1: B1 RNA 1
RNA 2: GGGAAUGGAUCCACAUCUACGAAUUCGUACCAUAGAGAGGUGUAUACCGCUCACCGAGAUCGGAAGAGCACACGU
B4: target 1 complement block 3-6 (mixed)
RNA 1: B1 RNA 1
RNA 2: B2 RNA 2 with U46G, G47C, C48G, U49A, A50C
B5: target 1 insC 3' of 15,insG 3' of 2 (mixed)
RNA 1: B1 RNA 1
RNA 2: B1 RNA 2 with U34A, A35G, G36A, A37G, G38C, U49C, C50U, U51C, C52G
B6: target 1 C2G,G13U (mixed)
RNA 1: B1 RNA 1
RNA 2: B2 RNA 2 with G39U, U46C, A50G
B7: target 1 insG 3' of 18,insG 3' of 4 (mixed)
RNA 1: B1 RNA 1
RNA 2: B1 RNA 2 with U34A, A35G, U49C, C50G
B8: target 1 insU 3' of 13,insG 3' of 10 (mixed)
RNA 1: B1 RNA 1
RNA 2: B3 RNA 2 with G40U, U41G, G42U, A44G, U45A, A46U
B9: target 1 C2U,U3C (mixed)
RNA 1: B1 RNA 1
RNA 2: B2 RNA 2 with U46C, U49C, A50U
B10: target 1 insA 3' of 15,insA 3' of 13 (mixed)
RNA 1: B1 RNA 1
RNA 2: B3 RNA 2 with G39A, U41A, A44U, U45A, A46U
B11: target 1 insC 3' of 16,insG 3' of 6 (mixed)
RNA 1: B1 RNA 1
RNA 2: B1 RNA 2 with U34A, A35G, G36A, A37C, U49G
B12: target 1 insA 3' of 21,insG 3' of 18 (mixed)
RNA 1: B1 RNA 1
RNA 2: B3 RNA 2 with U33A, A34U, G35A, A36G, G40A, U41G, A44U, U45A, A46U
B13: target 1 A9G,G13U (mixed)
RNA 1: B1 RNA 1
RNA 2: B2 RNA 2 with G39U, A43G, U46C, A50C
B14: target 1 A1G,C21A (mixed)
RNA 1: B1 RNA 1
RNA 2: B2 RNA 2 with C31A, U46C, A50C, A51G
B15: target 1 insG 3' of 22,insC 3' of 13 (mixed)
RNA 1: B1 RNA 1
RNA 2: GGGAAUGGAUCCACAUCUACGAAUUCGUACGCAUAGAGAGCGUUAUCCGCUCACCGAGAUCGGAAGAGCACACGU
B16: target 1 complement block 2-12 (mixed)
RNA 1: B1 RNA 1
RNA 2: GGGAAUGGAUCCACAUCUACGAAUUCGUACCAUAGAGAGCAAUAGGCGAGACCGAGAUCGGAAGAGCACACGU
B17: target 1 C6U,U10C (mixed)
RNA 1: B1 RNA 1
RNA 2: B2 RNA 2 with U42C, A50C
B18: target 1 A1U,C21A (mixed)
RNA 1: B1 RNA 1
RNA 2: B2 RNA 2 with C31A, U46C, A50C, A51U
B19: target 1 C4G,U8A (mixed)
RNA 1: B1 RNA 1
RNA 2: B2 RNA 2 with U44A, U46C, C48G, A50C
B20: target 1 complement block 1-12 (mixed)
RNA 1: B1 RNA 1
RNA 2: B16 RNA 2 with A51U
B21: target 1 C6G,U10A (mixed)
RNA 1: B1 RNA 1
RNA 2: B2 RNA 2 with U42A, U46G, A50C
B22: target 1 insG 3' of 9,insG 3' of 8 (mixed)
RNA 1: B1 RNA 1
RNA 2: B3 RNA 2 with G42U, U43A, A44G, A46G
B23: target 1 C7A,A9U (mixed)
RNA 1: B1 RNA 1
RNA 2: B2 RNA 2 with A43U, C45A, U46C, A50C
B24: target 1 G13A,U19G (mixed)
RNA 1: B1 RNA 1
RNA 2: B2 RNA 2 with U33G, G39A, U46C, A50C
B25: target 1 G12A,G17A (mixed)
RNA 1: B1 RNA 1
RNA 2: B2 RNA 2 with G35A, G40A, U46C, A50C
B26: target 1 insC 3' of 3,insA 3' of 2 (mixed)
RNA 1: B1 RNA 1
RNA 2: B3 RNA 2 with G42U, U43A, A44U, U45C, A46C, C47G, G49U, U51C, C52A
B27: target 1 C7G,A16U (mixed)
RNA 1: B1 RNA 1
RNA 2: B2 RNA 2 with A36U, C45G, U46C, A50C
B28: target 1 insC 3' of 20,insA 3' of 7 (mixed)
RNA 1: B1 RNA 1
RNA 2: B1 RNA 2 with U33C, C47A, G48C, U49G
B29: target 1 U3C,U8A (mixed)
RNA 1: B1 RNA 1
RNA 2: B2 RNA 2 with U44A, U46C, U49C, A50C
B30: target 1 insC 3' of 9,insG 3' of 9 (mixed)
RNA 1: B1 RNA 1
RNA 2: B3 RNA 2 with G42U, U43A, A44C, U45G, A46U
B31: target 1 A9G,G15C (mixed)
RNA 1: B1 RNA 1
RNA 2: B2 RNA 2 with G37C, A43G, U46C, A50C
B32: target 1 G5C,U10G (mixed)
RNA 1: B1 RNA 1
RNA 2: B2 RNA 2 with U42G, U46C, G47C, A50C
B33: target 1 insU 3' of 21,insG 3' of 7 (mixed)
RNA 1: B1 RNA 1
RNA 2: B1 RNA 2 with A32U, U33A, C47G, G48C, U49G

What follows are binders tested against T1, EsCas13d, nuclease-dead (assay: crRNA (strand 1, pre-loaded); Mg2+; 40 mM Tris-HCl pH 7.5, 150 mM NaCl, 6 mM MgCl2, 1 mM DTT, 0.1% Tween-20, 0.2 mg/ml BSA; 25 C; 10 min per concentration, then washed). Conditions: tags: His6-TwinStrep-SUMO cleaved; N-terminal SNAP kept (SNAP-Surface 488); label: 3' end held by stalled T7 RNA polymerase.

Binder	Kd
B1	24 ± 4 nM
B2	5.88 ± 0.27 nM
B3	40.5 ± 2.5 nM
B4	5.84 ± 0.3 nM
B5	17.9 ± 1.3 nM
B6	~60 nM
B7	37.5 ± 3.1 nM
B8	63 ± 23 nM
B9	16.6 ± 1.7 nM
B10	5.63 ± 0.28 nM
B11	~100 nM
B12	77 ± 20 nM
B13	53 ± 6 nM
B14	27 ± 4 nM
B15	44 ± 6 nM
B16	23.4 ± 1.6 nM
B17	19.7 ± 0.8 nM

Binder	Kd
B18	25.3 ± 3.1 nM
B19	7.4 ± 0.4 nM
B20	19.6 ± 1 nM
B21	8.6 ± 0.6 nM
B22	17.2 ± 1.3 nM
B23	7.5 ± 0.4 nM
B24	80 ± 40 nM
B25	30.8 ± 3.2 nM
B26	13.6 ± 1.2 nM
B27	53 ± 4 nM
B28	7.49 ± 0.35 nM
B29	18.7 ± 1.5 nM
B30	18.5 ± 1.2 nM
B31	67 ± 20 nM
B32	17.5 ± 0.9 nM
B33	23.6 ± 2 nM
